Experimental data as given in PMC9109717.

Substrate: Nc1ncnc2c1ncn2[C@@H]1O[C@H](CO)[C@H]2OP(=O)(O)O[C@H]21
Assay: purified protein
Format: biochemical, Thermobifida fusca
Conditions: pH 7.5

B1: (Thermobifida fusca YX) (protein)
chain: MPEHDSTDDKHGIPPLDLRFWAKERGLRGKTYPLVCHSLDAAAAALVLWNEYLSPGLRDTIASSMETDEEHAGHCIAFWAGLHDIGKLTREFQQQIAIDLSAYPGEELSGEQRSHAAATGKWLPFALPSLGYPNGGLVTGLVAQMLGGHHGTFHPHPSFQSRNPLAEFGFSSPHWEKQRHALLHAVFDATGRPTPPDMLDGPTASVVCGLVILADWLVSQEDFLLERLTSLPADGSASALRAHFETSLRRIPSLLDAAGLRPITVPPATFTESFPHLSKPNGLQASLAKHLPCLCTGPGLVLITAPMGEGKTEAAYHVADLLGKATGRPGRFLALPTMATADQMHTRLKEYARYRVENTDLPRSSTLALLHSMAWLNPDYAPADLPGVSKVLSNLGHRDPFAATDWLMGRKRGLLAPWAVGTIDQALMAVLRAKHNALRLFGLAGKVVVVDEAHAVDPYMQVLLEQLLRWLGTLDVPVVLLSATLHHSIANSLVKAYLEGARGRRWNRSEPQPVSEVSYPGWLHVDARIGKVTRSSDVDPLPIATTPRKPLEVRLVDVPVKEGALNRSTVLAKELTPLVKQGGCAAIICTTVAEAQGVYDLLSQWFATLGEDAPDLYLLHSRFPNRQRTEITATIVDLFGKEGAQSGRRPTRGAVLVATQVVEQSLDLDVDLMISDLAPVSLLLQRAGRCWRHEHLGIINRPQWAKQPELVVLTPEQNGDADRAPWFPRSWTSVYPLALLQRTYTLLRRRNGAPVQIPEDVQQLVDDVYDDDSLAEDLEADMERMGEELAQRGLARNAVIPDPDDAEDNLNGLTEFSFDVDEHVLATRFGAGSVRVLCYYVDTAGNRWLDPECTVEFPEQGTGREGRFTMADCRDLVARTIPVRMGPWASQLTEDNHPPEAWRESFYLRDLVLIPQRVTDEGAVLPTETGGREWLLDPCKGLIF
For B1, the Km was 27 (±6) mM.
